Common to all, as to assay: ITC; 5 mM RRESEI in the syringe, PDZ1-2, PDZ1 or PDZ2 in the cell at nominally 0.13 mM; 25°C; 20 mM Tris-HCl, 150 mM NaCl pH 8.5; single class of sites; Kd and N could not be refined independently
Details in all cases: both partners purified
A general note: Isothermal titration calorimetry measures the heat released or taken up as one component is titrated into another.

For test [1], the target named is T1, PSD-95 PDZ2 domain (human, UniProt P78352 154-249).
T1 construct: Gly-Pro left at the N-terminus after HRV 3C cleavage of the tag; PSD-95, human, PDZ2, residues 154-249 of UniProt P78352 (197-292 of P78352-2); Glutathione was not used in the purification of the single domains; source: E. coli BL21(DE3), purified (Ni-NTA, HRV 3C tag cleavage, negative Ni-NTA, Superdex 200 SEC); not shown: His6, N-terminal, cleaved
T1 sequence (P78352 other isoform, or with tags, fused parts or gaps): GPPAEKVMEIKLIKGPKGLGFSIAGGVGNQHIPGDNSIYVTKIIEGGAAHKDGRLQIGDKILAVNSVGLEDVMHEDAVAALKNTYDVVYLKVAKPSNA

The target of test [2] is T2, PSD-95 PDZ1-2 (dual PDZ domain of postsynaptic density protein 95) (human, UniProt P78352 55-249).
T2 construct: Gly-Pro left at the N-terminus after HRV 3C cleavage of the tag; PSD-95 (disks large homolog 4, SAP-90), human, residues 55-249 of UniProt P78352 (98-292 of P78352-2); PDZ1, linker and PDZ2; No Cys residues in the construct; also called apo-PDZ1-2; PDZ1-2 double domain; source: E. coli BL21(DE3), purified (Ni-NTA, HRV 3C tag cleavage, negative Ni-NTA, Superdex 200 SEC); not shown: His6, …
T2 sequence (P78352 other isoform, or with tags, fused parts or gaps): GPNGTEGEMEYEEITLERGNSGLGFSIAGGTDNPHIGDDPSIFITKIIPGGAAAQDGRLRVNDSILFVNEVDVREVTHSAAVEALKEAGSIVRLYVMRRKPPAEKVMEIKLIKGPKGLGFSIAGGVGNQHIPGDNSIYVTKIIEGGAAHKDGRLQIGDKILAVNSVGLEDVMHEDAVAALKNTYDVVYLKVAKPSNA

In test [3] the target is T3, PSD-95 PDZ1 domain (human, UniProt P78352 55-152).
T3 construct: Gly-Pro left at the N-terminus after HRV 3C cleavage of the tag; PSD-95, human, PDZ1, residues 55-152 of UniProt P78352 (98-195 of P78352-2); Glutathione was not used in the purification of the single domains; source: E. coli BL21(DE3), purified (Ni-NTA, HRV 3C tag cleavage, negative Ni-NTA, Superdex 200 SEC); not shown: His6, N-terminal, cleaved
T3 sequence (P78352 other isoform, or with tags, fused parts or gaps): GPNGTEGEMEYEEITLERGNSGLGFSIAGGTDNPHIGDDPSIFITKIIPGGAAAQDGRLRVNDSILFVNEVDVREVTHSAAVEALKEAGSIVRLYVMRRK

What is called Kd is the free concentration of one partner at which half of the binding sites on the other are occupied at equilibrium, for simple one-to-one binding. Higher therefore signals weaker binding. As a reminder, the stoichiometry N is a count of units in the complex or per binding partner.

B1: RRESEI peptide (last six residues, 422-427, of Kir2.1) (peptide)
peptide: RRESEI
notes: C-terminal six residues (422-427) of the inwardly rectifying potassium channel Kir2.1; also called RRESEI ligand; ligand peptide; source: synthetic peptide, 98% purity; bought: Peptide Protein Research
For the molecule B1, the equilibrium dissociation constant (Kd) in test [1] amounted to 60 ± 2 µM; in test [2] it was 90 ± 9 µM; in test [3], 6 ± 6 µM. Also, the results for the “stoichiometry N” value in test [1], in test [2] and in test [3] were 0.19 ± 0.06, 0.2 ± 0.07 and 0.61 ± 0.08, respectively.
